Source: US20210077575A1 (CEDARS SINAI MEDICAL CENTER, published 2021)

Biological target: T1, HER3 (human, UniProt P21860 20-1342)
T1 construct: whole, on cells; Endogenous receptor on tumour cell lines; also called ErbB3; Human ErbB3/HER3
Assay: confocal immunofluorescence, SK-MEL-2 cells treated with HerPBK10-GFPD10 nanoparticles, 0 minutes
Method: The cells were counterstained using DAPI to stain the nucleus and rhodamine phalloidin to stain actin.
Images were taken after 0, 15, 30, 60, and 120 minutes using confocal microscopy.

T1 sequence (P21860 20-1342): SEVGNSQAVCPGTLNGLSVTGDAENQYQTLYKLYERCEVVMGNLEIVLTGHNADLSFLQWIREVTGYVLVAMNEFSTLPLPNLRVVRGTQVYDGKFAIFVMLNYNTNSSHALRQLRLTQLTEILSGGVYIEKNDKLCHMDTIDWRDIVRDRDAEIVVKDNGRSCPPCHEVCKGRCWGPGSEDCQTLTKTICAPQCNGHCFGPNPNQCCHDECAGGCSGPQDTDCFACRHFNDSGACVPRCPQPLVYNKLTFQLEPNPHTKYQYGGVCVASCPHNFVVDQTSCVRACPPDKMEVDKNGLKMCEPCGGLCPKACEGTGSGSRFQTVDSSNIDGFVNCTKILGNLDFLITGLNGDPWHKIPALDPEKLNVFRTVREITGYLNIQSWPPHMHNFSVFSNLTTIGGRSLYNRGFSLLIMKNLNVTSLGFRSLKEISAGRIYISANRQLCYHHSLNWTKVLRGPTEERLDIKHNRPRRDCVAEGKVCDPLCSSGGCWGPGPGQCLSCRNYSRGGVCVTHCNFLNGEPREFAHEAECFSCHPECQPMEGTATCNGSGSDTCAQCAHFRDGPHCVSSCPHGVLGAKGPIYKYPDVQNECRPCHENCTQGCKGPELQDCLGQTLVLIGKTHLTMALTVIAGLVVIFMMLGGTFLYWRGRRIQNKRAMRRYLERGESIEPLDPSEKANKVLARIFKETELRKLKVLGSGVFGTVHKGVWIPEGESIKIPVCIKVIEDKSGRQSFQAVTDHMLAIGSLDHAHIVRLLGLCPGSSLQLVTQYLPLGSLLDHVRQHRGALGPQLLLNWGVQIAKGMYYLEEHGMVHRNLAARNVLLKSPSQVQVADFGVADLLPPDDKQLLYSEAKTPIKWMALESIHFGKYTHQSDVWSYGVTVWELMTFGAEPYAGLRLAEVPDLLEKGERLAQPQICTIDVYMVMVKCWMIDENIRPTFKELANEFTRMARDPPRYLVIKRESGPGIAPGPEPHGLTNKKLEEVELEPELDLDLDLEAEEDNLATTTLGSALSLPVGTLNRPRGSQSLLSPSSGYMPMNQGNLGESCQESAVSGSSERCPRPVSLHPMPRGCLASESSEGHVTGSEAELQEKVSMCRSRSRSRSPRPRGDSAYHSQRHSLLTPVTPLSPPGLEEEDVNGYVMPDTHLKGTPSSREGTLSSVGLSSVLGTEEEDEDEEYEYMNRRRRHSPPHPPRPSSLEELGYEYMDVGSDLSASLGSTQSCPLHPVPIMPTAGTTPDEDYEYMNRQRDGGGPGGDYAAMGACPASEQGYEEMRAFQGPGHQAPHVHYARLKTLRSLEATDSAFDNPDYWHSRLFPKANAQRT

B1: HerPBK10 carrier polypeptide comprising a Her cell-targeting segment, a penton base (PB) segment, a decalysine (K10) binding segment, and an N-terminal … (other)
chain: MRGSHHHHHHGMASMTGGQQMGRDLYDDDDKDRWGSELLPPQLKEMKSQESAAGSKLVLRCETSSEYSSLRFKWFKNGNELNRKNKPQNIKIQKKPGKSELRINKASLADSGEYMCKVISKLGNDSASANIAIVESNEIITGMPASTEGAYVSSESPIRISVSTEGANTSSSTSTSTTGTSHLVKCAEKEKTFCVNGGECFMVKDLSNPSRYLCKCQPGFTGARCTENVPMKVQNQEKAEELYGGSGGSRSMRRAAMYEEGPPPSYESVVSAAPVAAALGSPFDAPLDPPFVPPRYLRPTGGRNSIRYSELAPLFDTTRVYLVDNKSTDVASLNYQNDHSNFLTTVIQNNDYSPGEASTQTINLDDRSHWGGDLKTILHTNMPNVNEFMFTNKFKARVMVSRLPTKDNQVELKYEWVEFTLPEGNYSETMTIDLMNNAIVEHYLKVGRQNGVLESDIGVKFDTRNFRLGFDPVTGLVMPGVYTNEAFHPDIILLPGCGVDFTHSRLSNLLGIRKRQPFQEGFRITYDDLEGGNIPALLDVDAYQASLKDDTEQGGGGAGGSNSSGSGAEENSNAAAAAMQPVEDMNDHAIRGDTFATRAEEKRAEAEAAAEAAAPAAQPEVEKPQKKPVIKPLTEDSKKRSYNLISNDSTFTQYRSWYLAYNYGDPQTGIRSWTLLCTPDVTCGSEQVYWSLPDMMQDPVTFRSTRQISNFPVVGAELLPVHSKSFYNDQAVYSQLIRQFTSLTHVFNRFPENQILARPPAPTITTVSENVPALTDHGTLPLRNSIGGVQRVTITDARRRTCPYVYKALGIVSPRVLSSRTFKKKKKKKKKK
  binding result: binds
